Reference: article PMC9482650, “Quantitative fragmentomics allow affinity mapping of interactomes” (Nature Communications, 2022)

T1: MPP6, Q9NZW5
T1 sequence (Q9NZW5 125-219, limits assumed, looked up): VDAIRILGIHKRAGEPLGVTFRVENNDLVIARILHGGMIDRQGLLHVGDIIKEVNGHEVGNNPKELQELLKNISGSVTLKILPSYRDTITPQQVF

T2: MPP7, Q5T2T1
T2 sequence (Q5T2T1 134-230, limits assumed, looked up): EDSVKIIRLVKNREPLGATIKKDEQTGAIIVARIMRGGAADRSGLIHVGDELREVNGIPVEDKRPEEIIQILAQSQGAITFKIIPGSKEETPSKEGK

T3: RADIL, Q96JH8
T3 sequence (Q96JH8 971-1071, limits assumed, looked up): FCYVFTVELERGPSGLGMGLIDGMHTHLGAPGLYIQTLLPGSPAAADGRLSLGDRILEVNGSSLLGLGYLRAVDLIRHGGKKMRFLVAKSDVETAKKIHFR

T4: MPDZ_10, O75970
T4 sequence (O75970 1624-1722, limits assumed, looked up): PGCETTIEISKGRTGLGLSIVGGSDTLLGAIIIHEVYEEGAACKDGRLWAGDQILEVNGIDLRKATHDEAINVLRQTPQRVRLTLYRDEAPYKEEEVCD

T5: GRIP1_7, Q9Y3R0
T5 sequence (Q9Y3R0 999-1096, limits assumed, looked up): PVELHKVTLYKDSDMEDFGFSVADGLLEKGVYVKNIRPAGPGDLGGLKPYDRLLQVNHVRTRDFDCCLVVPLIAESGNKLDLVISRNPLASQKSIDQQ

T6: MPDZ_5, O75970
T6 sequence (O75970 695-796, limits assumed, looked up): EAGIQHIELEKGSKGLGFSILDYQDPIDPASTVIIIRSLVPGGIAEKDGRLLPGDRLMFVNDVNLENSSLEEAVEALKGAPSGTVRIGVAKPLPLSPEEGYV

T7: RAPGEF6, Q8TEU7
T7 sequence (Q8TEU7 525-625, limits assumed, looked up): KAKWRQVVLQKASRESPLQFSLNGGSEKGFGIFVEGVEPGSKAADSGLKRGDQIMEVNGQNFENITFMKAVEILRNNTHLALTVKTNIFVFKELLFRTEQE

T8: CARD11, Q9BXL7
T8 sequence (Q9BXL7 662-765, limits assumed, looked up): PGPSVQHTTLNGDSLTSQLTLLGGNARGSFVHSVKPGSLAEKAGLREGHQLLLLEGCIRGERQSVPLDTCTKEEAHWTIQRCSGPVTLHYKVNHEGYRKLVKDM

T9: LRRC7, Q96NW7
T9 sequence (Q96NW7 1440-1537, limits assumed, looked up): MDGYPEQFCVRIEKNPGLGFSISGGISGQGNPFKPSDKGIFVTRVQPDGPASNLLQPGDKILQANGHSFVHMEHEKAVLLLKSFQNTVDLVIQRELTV

T10: DFNB31_1, Q9P202
T10 sequence (Q9P202 135-233, limits assumed, looked up): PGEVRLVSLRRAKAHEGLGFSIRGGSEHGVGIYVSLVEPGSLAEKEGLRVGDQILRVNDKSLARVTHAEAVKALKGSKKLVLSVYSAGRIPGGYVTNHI

T11: GRIP1_2, Q9Y3R0
T11 sequence (Q9Y3R0 145-248, limits assumed, looked up): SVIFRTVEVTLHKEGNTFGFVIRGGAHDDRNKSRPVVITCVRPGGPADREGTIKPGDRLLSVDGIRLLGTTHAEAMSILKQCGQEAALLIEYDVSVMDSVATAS


Experiments:
Experiment in all cases: holdup assay
Set-up in all cases: key: below the threshold = too weak to quantify, mostly under pKd 3.1 to 4
Conditions in all cases: plain residues with an end cap or a label only (N-terminal biotin on a linker: ado-ado)
MPP6, Q9NZW5 = target: T1, MPP6, Q9NZW5
MPP7, Q5T2T1 = target: T2, MPP7, Q5T2T1
DLG4_2, P78352 = target: DLG4_2, P78352
DLG4_2, P78352, sequence (P78352 155-259): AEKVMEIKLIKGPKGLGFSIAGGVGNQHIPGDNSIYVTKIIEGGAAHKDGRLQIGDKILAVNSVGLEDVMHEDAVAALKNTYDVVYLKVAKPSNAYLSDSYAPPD

MAST1, Q9Y2H9 = target: MAST1, Q9Y2H9
MAST1, Q9Y2H9, sequence (Q9Y2H9 962-1065): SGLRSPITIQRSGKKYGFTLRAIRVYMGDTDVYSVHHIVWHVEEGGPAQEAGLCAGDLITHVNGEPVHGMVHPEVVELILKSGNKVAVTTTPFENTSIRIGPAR

MAGI2_5, Q86UL8 = target: MAGI2_5, Q86UL8
MAGI2_5, Q86UL8, sequence (Q86UL8 915-1017): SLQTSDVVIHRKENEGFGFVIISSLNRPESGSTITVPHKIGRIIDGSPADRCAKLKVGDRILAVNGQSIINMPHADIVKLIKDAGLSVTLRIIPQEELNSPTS

Inadl_2, Q8NI35 = target: Inadl_2, Q8NI35
Inadl_2, Q8NI35, sequence (Q8NI35 238-335): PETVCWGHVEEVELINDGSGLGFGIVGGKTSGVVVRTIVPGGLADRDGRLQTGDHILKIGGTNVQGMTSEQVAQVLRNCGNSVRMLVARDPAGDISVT

IL16_1, Q14005 = target: IL16_1, Q14005
IL16_1, Q14005, sequence (Q14005 210-306): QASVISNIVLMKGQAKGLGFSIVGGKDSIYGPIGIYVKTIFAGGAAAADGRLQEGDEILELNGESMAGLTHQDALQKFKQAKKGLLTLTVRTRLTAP

GRIP2_6, Q9C0E4 = target: GRIP2_6, Q9C0E4
GRIP2_6, Q9C0E4, sequence (Q9C0E4 648-740): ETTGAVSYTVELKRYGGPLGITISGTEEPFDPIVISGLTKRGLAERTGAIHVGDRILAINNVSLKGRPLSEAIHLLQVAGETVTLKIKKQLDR

RADIL, Q96JH8 = target: T3, RADIL, Q96JH8
MPDZ_10, O75970 = target: T4, MPDZ_10, O75970
GRIP1_7, Q9Y3R0 = target: T5, GRIP1_7, Q9Y3R0
MPDZ_5, O75970 = target: T6, MPDZ_5, O75970
NHERF4_1, Q86UT5-2 = target: NHERF4_1, Q86UT5-2
NHERF4_1, Q86UT5-2, sequence (Q86UT5 other isoform, or with tags, fused parts or gaps): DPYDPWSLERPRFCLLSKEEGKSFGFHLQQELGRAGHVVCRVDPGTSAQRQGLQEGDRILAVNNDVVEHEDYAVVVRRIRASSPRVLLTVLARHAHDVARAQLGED

GOPC, Q9HD26 = target: GOPC, Q9HD26
FRMPD4, Q14CM0 = target: FRMPD4, Q14CM0
FRMPD4, Q14CM0, sequence (Q14CM0 67-160): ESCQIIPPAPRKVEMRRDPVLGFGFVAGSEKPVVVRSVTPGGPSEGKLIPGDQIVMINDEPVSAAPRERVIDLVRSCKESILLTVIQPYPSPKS

RAPGEF6, Q8TEU7 = target: T7, RAPGEF6, Q8TEU7
CARD11, Q9BXL7 = target: T8, CARD11, Q9BXL7
MAGI3_2, Q5TCQ9 = target: MAGI3_2, Q5TCQ9
MAGI3_2, Q5TCQ9, sequence (Q5TCQ9 398-503): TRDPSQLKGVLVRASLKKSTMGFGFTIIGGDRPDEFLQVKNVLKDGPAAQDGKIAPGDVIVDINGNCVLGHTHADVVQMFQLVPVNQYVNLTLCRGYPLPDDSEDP

LDB3, O75112 = target: LDB3, O75112
LDB3, O75112, sequence (O75112 1-94): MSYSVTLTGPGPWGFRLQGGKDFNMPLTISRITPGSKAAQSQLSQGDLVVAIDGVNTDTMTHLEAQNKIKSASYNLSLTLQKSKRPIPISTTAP

FRMPD2_2, Q68DX3 = target: FRMPD2_2, Q68DX3
FRMPD2_2, Q68DX3, sequence (Q68DX3 944-1038): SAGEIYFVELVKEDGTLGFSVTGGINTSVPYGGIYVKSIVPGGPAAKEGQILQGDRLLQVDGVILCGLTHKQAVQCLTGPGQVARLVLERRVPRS

HTRA2, O43464 = target: HTRA2, O43464
HTRA2, O43464, sequence (O43464 355-458): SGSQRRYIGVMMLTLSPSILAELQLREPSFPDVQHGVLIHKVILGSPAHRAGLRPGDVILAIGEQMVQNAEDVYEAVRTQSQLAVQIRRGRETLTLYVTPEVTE

FRMPD3, Q5JV73 = target: FRMPD3, Q5JV73
FRMPD3, Q5JV73, sequence (Q5JV73 12-100): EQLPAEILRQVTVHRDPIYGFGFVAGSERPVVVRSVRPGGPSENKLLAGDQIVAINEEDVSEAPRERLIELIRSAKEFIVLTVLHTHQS

Inadl_4, Q8NI35 = target: Inadl_4, Q8NI35
Inadl_4, Q8NI35, sequence (Q8NI35 547-651): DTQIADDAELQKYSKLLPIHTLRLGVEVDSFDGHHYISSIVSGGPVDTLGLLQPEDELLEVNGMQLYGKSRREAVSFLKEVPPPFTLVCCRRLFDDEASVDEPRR

LRRC7, Q96NW7 = target: T9, LRRC7, Q96NW7
DFNB31_1, Q9P202 = target: T10, DFNB31_1, Q9P202
GRIP1_2, Q9Y3R0 = target: T11, GRIP1_2, Q9Y3R0

Binder	pKd (MPP6, Q9NZW5)	pKd (MPP7, Q5T2T1)	pKd (DLG4_2, P78352)	pKd (MAST1, Q9Y2H9)	pKd (MAGI2_5, Q86UL8)	pKd (Inadl_2, Q8NI35)	pKd (IL16_1, Q14005)	pKd (GRIP2_6, Q9C0E4)	pKd (RADIL, Q96JH8)	pKd (MPDZ_10, O75970)	pKd (GRIP1_7, Q9Y3R0)	pKd (MPDZ_5, O75970)	pKd (NHERF4_1, Q86UT5-2)	pKd (GOPC, Q9HD26)	pKd (FRMPD4, Q14CM0)	pKd (RAPGEF6, Q8TEU7)	pKd (CARD11, Q9BXL7)	pKd (MAGI3_2, Q5TCQ9)	pKd (LDB3, O75112)	pKd (FRMPD2_2, Q68DX3)	also measured
QSARLWETSI [ADAM22, Q9P0K1]	below the threshold	4.22	4.18	4.92	3.7	below the threshold	3.68	3.84	3.71	below the threshold	below the threshold	below the threshold	below the threshold	4.42	below the threshold	below the threshold	below the threshold	4.22	below the threshold	3.97	pKd (HTRA2, O43464): below the threshold; pKd (FRMPD3, Q5JV73): below the threshold; pKd (Inadl_4, Q8NI35): below the threshold; pKd (LRRC7, Q96NW7): below the threshold; pKd (DFNB31_1, Q9P202): 5.41; pKd (GRIP1_2, Q9Y3R0): below the threshold
MLSKQSESAI [FLVCR1, Q9Y5Y0]	below the threshold	below the threshold	3.84	4.18	below the threshold	below the threshold	below the threshold	below the threshold	below the threshold	below the threshold	below the threshold	below the threshold	3.6	below the threshold	below the threshold	below the threshold	below the threshold	4.45	below the threshold	below the threshold	pKd (HTRA2, O43464): below the threshold; pKd (FRMPD3, Q5JV73): below the threshold; pKd (Inadl_4, Q8NI35): below the threshold; pKd (LRRC7, Q96NW7): below the threshold; pKd (DFNB31_1, Q9P202): 4.86; pKd (GRIP1_2, Q9Y3R0): below the threshold
